Source: patent US20040265797A1

Molecular target: Vitronectin purified from human plasma (human) (UniProt P04004)
Assay: ELISA: biotinylated suPAR without uPA1-48 on vitronectin-coated wells

Chain of Vitronectin purified from human plasma (human) (P04004 20-478): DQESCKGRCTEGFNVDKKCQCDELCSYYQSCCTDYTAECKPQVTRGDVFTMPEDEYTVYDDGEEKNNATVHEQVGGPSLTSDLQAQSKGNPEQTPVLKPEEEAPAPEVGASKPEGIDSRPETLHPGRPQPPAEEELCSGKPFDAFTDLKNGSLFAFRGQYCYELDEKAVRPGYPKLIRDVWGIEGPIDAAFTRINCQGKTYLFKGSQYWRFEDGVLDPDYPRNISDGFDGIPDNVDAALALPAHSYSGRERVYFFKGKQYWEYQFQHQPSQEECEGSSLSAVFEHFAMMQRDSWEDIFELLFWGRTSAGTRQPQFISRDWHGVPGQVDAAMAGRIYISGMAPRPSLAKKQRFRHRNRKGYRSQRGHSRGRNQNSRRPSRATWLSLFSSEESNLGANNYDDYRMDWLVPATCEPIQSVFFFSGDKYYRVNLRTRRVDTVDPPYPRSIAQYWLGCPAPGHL

Soluble recombinant human urokinase receptor (suPAR) (from UniProt Q03405 23-299)
mean absorbance at 450 nm: 0.03 OD450
